{
  "source": "patent US20240200091A1",
  "about": "“USE OF PROTOPORPHYRINOGEN OXIDASE” (BEIJING DABEINONG BIOTECHNOLOGY CO., LTD., priority 2021, published 2024)",
  "format_in_all_cases": "in vivo",
  "settings_in_all_cases": "for The grade of pesticide damage/plant: number of plants of grade 0 / The grade of pesticide damage/plant: number of plants of grade 1 / The grade of pesticide damage/plant: number of plants of grade 2 / The grade of pesticide damage/plant: number of plants of grade 3: 7 DAT, 16 maize plants per genotype",
  "key": {"transgenic maize plants [1]": {"test_system": "transgenic maize plants", "experiment": "saflufenacil tolerance of transgenic maize plants (spray, grade of pesticide damage)"}, "transgenic maize plants [2]": {"test_system": "transgenic maize plants", "experiment": "flumioxazin tolerance of transgenic maize plants (spray, grade of pesticide damage)"}, "transgenic maize plants [3]": {"test_system": "transgenic maize plants", "experiment": "oxyfluorfen tolerance of transgenic maize plants (spray, grade of pesticide damage)"}, "[4]": {"settings": "saflufenacil 50 g ai/ha (2x field concentration)"}, "[5]": {"settings": "saflufenacil 100 g ai/ha (4x field concentration)"}, "[6]": {"settings": "flumioxazin 120 g ai/ha (2x field concentration)"}, "[7]": {"settings": "flumioxazin 240 g ai/ha (4x field concentration)"}, "[8]": {"settings": "oxyfluorfen 360 g ai/ha (2x field concentration)"}, "[9]": {"settings": "oxyfluorfen 720 g ai/ha (4x field concentration)"}},
  "data": [
    {"molecule": "PPO-APB: nucleotide sequence encoding Arsenophonus protoporphyrinogen oxidase PPO-AP (SEQ ID NO:65), maize common codon usage bias (nucleic acid, The nucleotide sequence of PPO-APB) DNA: ATGTCCTACCTCTTGCTGTATTCGGGGAAAAATGGTCAAACCAAGAAGATCATCCTCAAAATAACTGAATATCTTCGTAAAGAAGGAAAGCAGTGCGACGTCAGAGATCTTAACATGGACAAGAATTTTAATTTAAGTGTGTACCAGAAGGTTCTTGTCGGAGCTTCAATTCGCTACGGCCACTTCAACCCCGCCGTGCTGAACTTCGCGCAGAATCATCAAAAAGAGCTGAACACAATTCAATCTGCCTTCTTTGGCGTCAACCTGATGGCGAGGAAGCAAGGGAAGGATACACCAGAAACCAATGTTTATGTTCGGAAGTTTTTGGCTAAAATTCCATGGCAGCCGACGATCACCAACGTATTTAGCGGTGCACTCAGATATCCTCAGTACAAGTGGCTGGATAGGATAATGATCCAGTTCATCATGAAGATTACTGGCGGCGAGACAAATAAGAACAAGGAGGTGGAGTACACGGACTGGGAGAAAGTGGAATACTTCGCCCGCGAGTTCAATGCACTAAAATGA", "values": [
      {"measurement": "tolerance to saflufenacil", "setting": "transgenic maize plants [1]; maize, saflufenacil at four-fold field concentration (100 g ai/ha)", "result": "basically no tolerance"},
      {"measurement": "share of the plants that exhibited no tolerance", "setting": "transgenic maize plants [1]; maize, saflufenacil at two-fold field concentration (50 g ai/ha)", "result": "about 56"},
      {"measurement": "The grade of pesticide damage/plant: number of plants of grade 0", "setting": "transgenic maize plants [1]; [4]", "result": 0},
      {"measurement": "The grade of pesticide damage/plant: number of plants of grade 1", "setting": "transgenic maize plants [1]; [4]", "result": 0},
      {"measurement": "The grade of pesticide damage/plant: number of plants of grade 2", "setting": "transgenic maize plants [1]; [4]", "result": 7},
      {"measurement": "The grade of pesticide damage/plant: number of plants of grade 3", "setting": "transgenic maize plants [1]; [4]", "result": 9},
      {"measurement": "The grade of pesticide damage/plant: number of plants of grade 0", "setting": "transgenic maize plants [1]; [5]", "result": 0},
      {"measurement": "The grade of pesticide damage/plant: number of plants of grade 1", "setting": "transgenic maize plants [1]; [5]", "result": 0},
      {"measurement": "The grade of pesticide damage/plant: number of plants of grade 2", "setting": "transgenic maize plants [1]; [5]", "result": 1},
      {"measurement": "The grade of pesticide damage/plant: number of plants of grade 3", "setting": "transgenic maize plants [1]; [5]", "result": 15},
      {"measurement": "The grade of pesticide damage/plant: number of plants of grade 0", "setting": "transgenic maize plants [2]; [6]", "result": 0},
      {"measurement": "The grade of pesticide damage/plant: number of plants of grade 1", "setting": "transgenic maize plants [2]; [6]", "result": 0},
      {"measurement": "The grade of pesticide damage/plant: number of plants of grade 2", "setting": "transgenic maize plants [2]; [6]", "result": 3},
      {"measurement": "The grade of pesticide damage/plant: number of plants of grade 3", "setting": "transgenic maize plants [2]; [6]", "result": 13},
      {"measurement": "The grade of pesticide damage/plant: number of plants of grade 0", "setting": "transgenic maize plants [2]; [7]", "result": 0},
      {"measurement": "The grade of pesticide damage/plant: number of plants of grade 1", "setting": "transgenic maize plants [2]; [7]", "result": 0},
      {"measurement": "The grade of pesticide damage/plant: number of plants of grade 2", "setting": "transgenic maize plants [2]; [7]", "result": 0},
      {"measurement": "The grade of pesticide damage/plant: number of plants of grade 3", "setting": "transgenic maize plants [2]; [7]", "result": 16},
      {"measurement": "tolerance to flumioxazin", "setting": "transgenic maize plants [2]; maize, flumioxazin at different concentrations (120 and 240 g ai/ha)", "result": "basically no tolerance"},
      {"measurement": "tolerance to oxyfluorfen", "setting": "transgenic maize plants [3]; maize, oxyfluorfen at four-fold field concentration (720 g ai/ha)", "result": "no tolerance"},
      {"measurement": "share of the plants that exhibited no tolerance", "setting": "transgenic maize plants [3]; maize, oxyfluorfen at two-fold field concentration (360 g ai/ha)", "result": "about 50%"},
      {"measurement": "The grade of pesticide damage/plant: number of plants of grade 0", "setting": "transgenic maize plants [3]; [8]", "result": 0},
      {"measurement": "The grade of pesticide damage/plant: number of plants of grade 1", "setting": "transgenic maize plants [3]; [8]", "result": 0},
      {"measurement": "The grade of pesticide damage/plant: number of plants of grade 2", "setting": "transgenic maize plants [3]; [8]", "result": 8},
      {"measurement": "The grade of pesticide damage/plant: number of plants of grade 3", "setting": "transgenic maize plants [3]; [8]", "result": 8},
      {"measurement": "The grade of pesticide damage/plant: number of plants of grade 0", "setting": "transgenic maize plants [3]; [9]", "result": 0},
      {"measurement": "The grade of pesticide damage/plant: number of plants of grade 1", "setting": "transgenic maize plants [3]; [9]", "result": 0},
      {"measurement": "The grade of pesticide damage/plant: number of plants of grade 2", "setting": "transgenic maize plants [3]; [9]", "result": 0},
      {"measurement": "The grade of pesticide damage/plant: number of plants of grade 3", "setting": "transgenic maize plants [3]; [9]", "result": 16}
    ]}
  ]
}
